PMC9482650, “Quantitative fragmentomics allow affinity mapping of interactomes” (Nature Communications, 2022)

Columns and labels:
Test in all cases: holdup assay
Set-up in all cases: key: below the threshold = too weak to quantify, mostly under pKd 3.1 to 4
PDZD7_3, Q9H5P4 = target: T1, PDZD7_3, Q9H5P4
T1 sequence (Q9H5P4 857-944, limits assumed, looked up): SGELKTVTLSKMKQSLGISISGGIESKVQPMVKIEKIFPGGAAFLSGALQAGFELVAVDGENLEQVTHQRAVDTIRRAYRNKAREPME

LNX1_1, Q8TBB1 = target: LNX1_1, Q8TBB1
RADIL, Q96JH8 = target: T2, RADIL, Q96JH8
T2 sequence (Q96JH8 971-1071, limits assumed, looked up): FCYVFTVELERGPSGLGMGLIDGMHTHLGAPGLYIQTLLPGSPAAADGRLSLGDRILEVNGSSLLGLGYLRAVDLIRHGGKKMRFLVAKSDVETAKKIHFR

NOS1, P29475 = target: NOS1, P29475
NHERF3_4, Q5T2W1 = target: T3, NHERF3_4, Q5T2W1
T3 sequence (Q5T2W1 373-468, limits assumed, looked up): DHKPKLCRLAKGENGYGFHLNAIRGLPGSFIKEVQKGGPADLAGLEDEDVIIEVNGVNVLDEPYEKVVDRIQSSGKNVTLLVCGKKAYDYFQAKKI

MAGI1_2, Q96QZ7 = target: MAGI1_2, Q96QZ7
MPDZ_5, O75970 = target: T4, MPDZ_5, O75970
T4 sequence (O75970 695-796, limits assumed, looked up): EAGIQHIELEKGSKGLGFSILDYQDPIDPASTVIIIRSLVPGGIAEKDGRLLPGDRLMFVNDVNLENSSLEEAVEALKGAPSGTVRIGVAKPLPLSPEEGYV

SCRIB_3, Q14160 = target: SCRIB_3, Q14160
APBA2_1, Q99767 = target: T5, APBA2_1, Q99767
T5 sequence (Q99767 563-664, limits assumed, looked up): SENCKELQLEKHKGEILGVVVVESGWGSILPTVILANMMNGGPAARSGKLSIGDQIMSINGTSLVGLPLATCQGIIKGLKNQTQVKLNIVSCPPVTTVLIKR

GRIP1_5, Q9Y3R0 = target: T6, GRIP1_5, Q9Y3R0
T6 sequence (Q9Y3R0 568-668, limits assumed, looked up): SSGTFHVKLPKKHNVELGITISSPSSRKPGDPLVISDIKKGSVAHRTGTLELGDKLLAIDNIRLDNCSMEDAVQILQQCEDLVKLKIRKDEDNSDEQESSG

MAGI2_6, Q86UL8 = target: MAGI2_6, Q86UL8
MAGI2_4, Q86UL8 = target: MAGI2_4, Q86UL8
NHERF4_2, Q86UT5 = target: NHERF4_2, Q86UT5
LNX2_3, Q8N448 = target: T7, LNX2_3, Q8N448
T7 sequence (Q8N448 463-564, limits assumed, looked up): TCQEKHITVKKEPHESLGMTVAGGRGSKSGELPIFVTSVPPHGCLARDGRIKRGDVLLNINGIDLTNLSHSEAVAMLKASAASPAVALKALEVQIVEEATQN

GORASP1, Q9BQQ3 = target: GORASP1, Q9BQQ3
TJP2_1, Q9UDY2 = target: TJP2_1, Q9UDY2
LNX2_2, Q8N448 = target: T8, LNX2_2, Q8N448
T8 sequence (Q8N448 334-432, limits assumed, looked up): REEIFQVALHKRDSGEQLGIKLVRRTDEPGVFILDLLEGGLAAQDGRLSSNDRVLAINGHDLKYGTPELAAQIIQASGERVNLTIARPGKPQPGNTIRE

MAGI2_5, Q86UL8 = target: MAGI2_5, Q86UL8
SYNJ2BP, P57105 = target: T9, SYNJ2BP, P57105
T9 sequence (P57105 8-110, limits assumed, looked up): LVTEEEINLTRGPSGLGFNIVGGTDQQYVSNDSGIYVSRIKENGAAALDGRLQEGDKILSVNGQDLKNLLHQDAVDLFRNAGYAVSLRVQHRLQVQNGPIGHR

TJP3_3, O95049 = target: T10, TJP3_3, O95049
T10 sequence (O95049 375-456, limits assumed, looked up): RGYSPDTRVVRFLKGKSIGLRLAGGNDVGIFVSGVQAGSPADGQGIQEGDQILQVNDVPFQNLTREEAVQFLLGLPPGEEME

GOPC, Q9HD26 = target: GOPC, Q9HD26
PDZD2_2, O15018 = target: T11, PDZD2_2, O15018
T11 sequence (O15018 329-429, limits assumed, looked up): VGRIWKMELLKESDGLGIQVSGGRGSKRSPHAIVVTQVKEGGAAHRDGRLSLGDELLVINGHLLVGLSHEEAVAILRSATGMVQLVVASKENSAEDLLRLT

LNX1_3, Q8TBB1 = target: LNX1_3, Q8TBB1
PDZRN3_1, Q9UPQ7 = target: T12, PDZRN3_1, Q9UPQ7
T12 sequence (Q9UPQ7 244-349, limits assumed, looked up): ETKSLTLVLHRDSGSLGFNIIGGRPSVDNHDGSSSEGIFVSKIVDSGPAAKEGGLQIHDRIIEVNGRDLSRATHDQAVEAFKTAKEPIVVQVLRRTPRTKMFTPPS

PICK1, Q9NRD5 = target: PICK1, Q9NRD5
IL16_3, Q14005 = target: IL16_3, Q14005
[1] = plain residues with an end cap or a label only (N-terminal biotin on a linker: ttds)
[2] = plain residues with an end cap or a label only (N-terminal biotin on a linker: ahx)

Sequence of TJP2_1, Q9UDY2 (Q9UDY2 24-128): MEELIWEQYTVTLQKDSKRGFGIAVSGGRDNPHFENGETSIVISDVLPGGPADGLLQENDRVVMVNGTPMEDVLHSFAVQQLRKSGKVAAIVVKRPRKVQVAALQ
Sequence of GORASP1, Q9BQQ3 (Q9BQQ3 1-208): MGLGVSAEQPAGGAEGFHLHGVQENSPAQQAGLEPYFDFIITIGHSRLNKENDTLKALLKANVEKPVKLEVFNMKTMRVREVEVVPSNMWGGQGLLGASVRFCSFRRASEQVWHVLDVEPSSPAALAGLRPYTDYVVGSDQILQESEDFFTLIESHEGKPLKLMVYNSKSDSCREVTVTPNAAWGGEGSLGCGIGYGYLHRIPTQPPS
Sequence of LNX1_1, Q8TBB1 (Q8TBB1 261-371): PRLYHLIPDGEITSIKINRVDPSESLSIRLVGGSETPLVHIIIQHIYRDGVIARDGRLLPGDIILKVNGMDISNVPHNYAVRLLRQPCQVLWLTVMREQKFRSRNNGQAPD
Sequence of MAGI2_5, Q86UL8 (Q86UL8 915-1017): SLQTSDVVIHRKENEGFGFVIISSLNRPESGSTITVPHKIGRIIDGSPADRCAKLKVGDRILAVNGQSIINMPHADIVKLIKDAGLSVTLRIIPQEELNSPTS
Sequence of MAGI2_6, Q86UL8 (Q86UL8 1141-1229): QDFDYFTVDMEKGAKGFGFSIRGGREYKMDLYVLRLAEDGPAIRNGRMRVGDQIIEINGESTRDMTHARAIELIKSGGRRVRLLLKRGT
Sequence of NOS1, P29475 (P29475 9-101): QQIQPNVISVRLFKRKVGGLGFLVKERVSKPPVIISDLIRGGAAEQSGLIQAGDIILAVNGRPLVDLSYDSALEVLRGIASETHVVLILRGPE
Sequence of MAGI2_4, Q86UL8 (Q86UL8 772-865): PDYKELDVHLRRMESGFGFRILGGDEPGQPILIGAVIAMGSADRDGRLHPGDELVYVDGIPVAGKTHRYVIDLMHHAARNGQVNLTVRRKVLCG
Sequence of SCRIB_3, Q14160 (Q14160 999-1103): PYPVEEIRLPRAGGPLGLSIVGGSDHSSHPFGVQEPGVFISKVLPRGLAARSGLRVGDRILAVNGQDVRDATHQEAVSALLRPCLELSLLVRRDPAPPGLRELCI
Sequence of IL16_3, Q14005 (Q14005 1107-1207): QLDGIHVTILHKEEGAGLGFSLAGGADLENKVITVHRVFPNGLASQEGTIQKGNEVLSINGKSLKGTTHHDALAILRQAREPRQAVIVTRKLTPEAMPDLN
Sequence of PICK1, Q9NRD5 (Q9NRD5 17-115): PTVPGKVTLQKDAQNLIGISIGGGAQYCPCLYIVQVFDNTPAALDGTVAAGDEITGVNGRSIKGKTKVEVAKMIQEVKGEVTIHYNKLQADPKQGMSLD
Sequence of NHERF4_2, Q86UT5 (Q86UT5 220-308): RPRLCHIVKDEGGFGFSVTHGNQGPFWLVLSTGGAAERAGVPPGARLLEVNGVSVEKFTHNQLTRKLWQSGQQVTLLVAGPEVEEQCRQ
Sequence of LNX1_3, Q8TBB1 (Q8TBB1 500-596): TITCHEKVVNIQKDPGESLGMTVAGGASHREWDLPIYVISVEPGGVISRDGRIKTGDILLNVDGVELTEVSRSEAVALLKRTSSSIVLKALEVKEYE
Sequence of MAGI1_2, Q96QZ7 (Q96QZ7 456-580): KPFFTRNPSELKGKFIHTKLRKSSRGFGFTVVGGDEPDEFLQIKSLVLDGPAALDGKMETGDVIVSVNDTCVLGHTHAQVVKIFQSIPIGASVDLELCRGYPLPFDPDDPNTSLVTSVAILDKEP

Binder: SHSSKGETAV [FZD7, O75084]
- pKd (PDZD7_3, Q9H5P4; [1]): 3.86
- pKd (LNX1_1, Q8TBB1; [1]): below the threshold
- pKd (RADIL, Q96JH8; [1]): below the threshold
- pKd (NOS1, P29475; [1]): 4.41
- pKd (NHERF3_4, Q5T2W1; [1]): below the threshold
- pKd (MAGI1_2, Q96QZ7; [1]): 3.9
- pKd (MPDZ_5, O75970; [1]): below the threshold
- pKd (SCRIB_3, Q14160; [1]): 4.78
- pKd (APBA2_1, Q99767; [1]): below the threshold
- pKd (GRIP1_5, Q9Y3R0; [1]): below the threshold
- pKd (MAGI2_6, Q86UL8; [1]): 4.43
- pKd (MAGI2_4, Q86UL8; [1]): below the threshold
- pKd (NHERF4_2, Q86UT5; [1]): below the threshold
- pKd (LNX2_3, Q8N448; [1]): below the threshold
- pKd (GORASP1, Q9BQQ3; [1]): 3.48
- pKd (TJP2_1, Q9UDY2; [1]): below the threshold
- pKd (LNX2_2, Q8N448; [1]): below the threshold
- pKd (MAGI2_5, Q86UL8; [1]): below the threshold
- pKd (SYNJ2BP, P57105; [1]): 5.08
- pKd (TJP3_3, O95049; [1]): below the threshold
- pKd (GOPC, Q9HD26; [1]): below the threshold
- pKd (PDZD2_2, O15018; [1]): 4.09
- pKd (LNX1_3, Q8TBB1; [1]): below the threshold
- pKd (PDZRN3_1, Q9UPQ7; [1]): 4.51
- pKd (PICK1, Q9NRD5; [1]): below the threshold
- pKd (IL16_3, Q14005; [1]): below the threshold

Binder: KLVIKTETTV [RASSF6, Q6ZTQ3]
- pKd (PDZD7_3, Q9H5P4; [1]): 4.39
- pKd (LNX1_1, Q8TBB1; [1]): below the threshold
- pKd (RADIL, Q96JH8; [1]): below the threshold
- pKd (NOS1, P29475; [1]): 3.58
- pKd (NHERF3_4, Q5T2W1; [1]): below the threshold
- pKd (MAGI1_2, Q96QZ7; [1]): 4.82
- pKd (MPDZ_5, O75970; [1]): below the threshold
- pKd (SCRIB_3, Q14160; [1]): 4.3
- pKd (APBA2_1, Q99767; [1]): below the threshold
- pKd (GRIP1_5, Q9Y3R0; [1]): below the threshold
- pKd (MAGI2_6, Q86UL8; [1]): below the threshold
- pKd (MAGI2_4, Q86UL8; [1]): 4.45
- pKd (NHERF4_2, Q86UT5; [1]): below the threshold
- pKd (LNX2_3, Q8N448; [1]): below the threshold
- pKd (GORASP1, Q9BQQ3; [1]): below the threshold
- pKd (TJP2_1, Q9UDY2; [1]): below the threshold
- pKd (LNX2_2, Q8N448; [1]): 4.48
- pKd (MAGI2_5, Q86UL8; [1]): 3.77
- pKd (SYNJ2BP, P57105; [1]): 4.97
- pKd (TJP3_3, O95049; [1]): below the threshold
- pKd (GOPC, Q9HD26; [1]): 3.53
- pKd (PDZD2_2, O15018; [1]): 3.65
- pKd (LNX1_3, Q8TBB1; [1]): below the threshold
- pKd (PDZRN3_1, Q9UPQ7; [1]): 3.82
- pKd (PICK1, Q9NRD5; [1]): below the threshold
- pKd (IL16_3, Q14005; [1]): below the threshold

Binder: PFRSRSPSEV [GPR6, P46095]
- pKd (PDZD7_3, Q9H5P4; [1]): below the threshold
- pKd (LNX1_1, Q8TBB1; [1]): below the threshold
- pKd (RADIL, Q96JH8; [1]): below the threshold
- pKd (NOS1, P29475; [1]): 3.74
- pKd (NHERF3_4, Q5T2W1; [1]): below the threshold
- pKd (MAGI1_2, Q96QZ7; [1]): below the threshold
- pKd (MPDZ_5, O75970; [1]): below the threshold
- pKd (SCRIB_3, Q14160; [1]): 3.49
- pKd (APBA2_1, Q99767; [1]): below the threshold
- pKd (GRIP1_5, Q9Y3R0; [1]): below the threshold
- pKd (MAGI2_6, Q86UL8; [1]): below the threshold
- pKd (MAGI2_4, Q86UL8; [1]): below the threshold
- pKd (NHERF4_2, Q86UT5; [1]): below the threshold
- pKd (LNX2_3, Q8N448; [1]): below the threshold
- pKd (GORASP1, Q9BQQ3; [1]): below the threshold
- pKd (TJP2_1, Q9UDY2; [1]): below the threshold
- pKd (LNX2_2, Q8N448; [1]): below the threshold
- pKd (MAGI2_5, Q86UL8; [1]): below the threshold
- pKd (SYNJ2BP, P57105; [1]): 4.18
- pKd (TJP3_3, O95049; [1]): below the threshold
- pKd (GOPC, Q9HD26; [1]): below the threshold
- pKd (PDZD2_2, O15018; [1]): 3.8
- pKd (LNX1_3, Q8TBB1; [1]): below the threshold
- pKd (PDZRN3_1, Q9UPQ7; [1]): below the threshold
- pKd (PICK1, Q9NRD5; [1]): below the threshold
- pKd (IL16_3, Q14005; [1]): below the threshold

Binder: KEYDDELTFF [USH1C, Q9Y6N9]
- pKd (PDZD7_3, Q9H5P4; [2]): 3.64
- pKd (LNX1_1, Q8TBB1; [2]): below the threshold
- pKd (RADIL, Q96JH8; [2]): 3.78
- pKd (NOS1, P29475; [2]): below the threshold
- pKd (NHERF3_4, Q5T2W1; [2]): 3.8
- pKd (MAGI1_2, Q96QZ7; [2]): below the threshold
- pKd (MPDZ_5, O75970; [2]): below the threshold
- pKd (SCRIB_3, Q14160; [2]): 3.61
- pKd (APBA2_1, Q99767; [2]): below the threshold
- pKd (GRIP1_5, Q9Y3R0; [2]): below the threshold
- pKd (MAGI2_6, Q86UL8; [2]): below the threshold
- pKd (MAGI2_4, Q86UL8; [2]): 3.51
- pKd (NHERF4_2, Q86UT5; [2]): below the threshold
- pKd (LNX2_3, Q8N448; [2]): below the threshold
- pKd (GORASP1, Q9BQQ3; [2]): 3.56
- pKd (TJP2_1, Q9UDY2; [2]): below the threshold
- pKd (LNX2_2, Q8N448; [2]): below the threshold
- pKd (MAGI2_5, Q86UL8; [2]): 3.96
- pKd (SYNJ2BP, P57105; [2]): below the threshold
- pKd (TJP3_3, O95049; [2]): below the threshold
- pKd (GOPC, Q9HD26; [2]): below the threshold
- pKd (PDZD2_2, O15018; [2]): 3.75
- pKd (LNX1_3, Q8TBB1; [2]): below the threshold
- pKd (PDZRN3_1, Q9UPQ7; [2]): below the threshold
- pKd (PICK1, Q9NRD5; [2]): below the threshold
- pKd (IL16_3, Q14005; [2]): below the threshold
